Tests used:
insulin hexamer = target: T1, insulin hexamer (Homo sapiens, UniProt P01308); assay: Gel filtration chromatography of insulin hexamer formation in the presence of INHD peptide; assay type: biochemical; details: 5 μM insulin
T1 construct: purchased Sigma-Aldrich Corp
Method: In order to separately detect insulin hexamers and insulin monomers, gel filtration chromatography was performed. PBS supplemented with 100 μM ZnCl2 was used as a solvent to form hexamers at a concentration of this experiment (5 μM). This is because zinc ion stabilizes insulin hexamers. For the 5 μM insulin solution, the hexamer was the main peak, and the ratio of the monomer was extremely low.
The insulin solution was subjected to gel filtration chromatography in the presence of the INHD peptide to show inhibition of insulin hexamer formation by the INHD peptide.

[1] = tested on: Fc-fusion human insulin receptor; assay: BIACORE 2000 analysis of the interaction between insulin and insulin receptor in the presence of the peptides; assay type: binding; details: 5 μM insulin forming a hexamer in the presence of 100 μM ZnCl2, 500 μM peptide added
Method: A DNA sequence encoding the Fc-fusion human insulin receptor (Bass, J. J. Biol. Chem. 271, 19367 (1996)) was constructed and inserted into the vector pEF-BOS (Nucleic Acids Res. 1990 Sep. 11; 18(17): 5322). Mammalian cells, FreeStyle 293-F, were cultured at 37° C., and the concentration of the cells was adjusted to 1×10^6 cells/mL. The insulin receptor-expressing plasmid was mixed with Cellfectin (Invitrogen Corporation), and added to the cells, followed by culture for an additional two days. The obtained culture supernatant was purified by protein A affinity chromatography, to yield an Fc-fusion human insulin receptor.
Commercially available insulin (manufactured by Sigma-Aldrich Corp.) and the Fc-fusion human insulin receptor obtained by the method above (item (1)) were used to analyze the interaction between insulin and the insulin receptor (BIACORE 2000, manufactured by Biacore Medical Technologies, Inc.). First, PBS with or without 100 μM ZnCl2 was used to prepare 5 μM insulin solutions.
Subsequently, 500 μM INHD1 and INHD2 peptides were added to insulin that forms a hexamer in the presence of ZnCl2, and the interaction between insulin and the insulin receptor was observed.

T1 sequence (P01308 25-54 limits assumed): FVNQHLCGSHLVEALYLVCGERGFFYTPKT
T1 sequence (P01308 90-110 limits assumed): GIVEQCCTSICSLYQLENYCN

INHD1: Designed peptide from insulin B-chain positions 5 to 29, with Glu/Lys introduced, Glu13 to Gln, Leu17 to Ala, Cys19 to Ser (HEEGSKKVQELYAKSGERGFFYTPK)
peak which represents the insulin hexamer (gel filtration) (insulin hexamer; 500 μM peptide, PBS with 100 μM ZnCl2): significantly decreased
receptor binding of insulin (interaction between insulin and the insulin receptor) [1]: significantly increased to a level approximately equal to that with an insulin monomer

INHD2: Smaller designed peptide corresponding to the insulin B-chain α-helix at positions 5 to 20 (HEEGSKKVQELYAKSG)
inhibition of hexamer formation (gel filtration) (insulin hexamer; PBS with 100 μM ZnCl2, compared with INHD1 peptide): slightly lower than that for the INHD1 peptide
receptor binding of insulin (interaction between insulin and the insulin receptor) [1]: significantly increased to a level approximately equal to that with an insulin monomer

From patent publication US20090264338A1, “Inhibitor of Insulin Multimer Formation” (priority 2005, published 2009)
